No end group written: not given here.
B1: QETCGTMVRALMPCLPFVQGKEKEPSKGCCSGAKRLDGETKTGPQRVHACECIQTAMKTYSDIDGKLVSEVPKHCGIVDSKLPPIDVNMDCKTVGVVPRQPQLPVSLRHGPVTGPSDPAHKARLERPQIRVPPPAPEKA (protein)
chain: QETCGTMVRALMPCLPFVQGKEKEPSKGCCSGAKRLDGETKTGPQRVHACECIQTAMKTYSDIDGKLVSEVPKHCGIVDSKLPPIDVNMDCKTVGVVPRQPQLPVSLRHGPVTGPSDPAHKARLERPQIRVPPPAPEKA
notes: Recombinant isoform of Parietaria judaica major allergen Parj1, 139 aa, containing the Par37 region

What was measured:
human erythrocytes = test: Hemolysis test; format: cell-based; conditions: 0.0025-0.025-0.25-2.5-25 mM; 6% erythrocytes; reading at 415 nm; FIG. 6
Protocol: FIG. 6: Hemolysis test with human erythrocytes. The assay is capable of describing possible hemolysis induced after incubation with Par37 peptide at different concentrations. There were used 1×PBS as negative control and 0.1% Triton X100 as positive control. Optical Densities measured at […] indicate hemoglobin release in the medium following cell lysis.
For the hemolysis test, peripheral blood, collected from a donor, in heparin was used. A solution of 6% human erythrocytes was prepared. Erythrocyte concentration was controlled by reading the optical density of an hemolysate of the cell suspension thus made: 0.5 ml blood+7 ml distilled water should give a reading of 0.7 O.D. at the spectrophotometer at 541 nm. Erythrocytes were incubated in triplicate with an increasing concentration of Par37 (0.0025-0.025-0.25-2.5-25 mM) and with 1×PBS as negative control and a 0.1% solution of Triton X100 as positive control. Sample reading was carried out at 415 nm.

[1] = test system: heparinised blood from Pj allergic subjects; test: Histamine release from blood of Pj allergic patients; format: cell-based, human; conditions: 0.0001 to 1 μg/ml; Pj allergic subjects n=5; FIG. 9
Protocol: FIG. 9: Testing of histamine release from blood of Pj allergic patients. The antigens used were: rParj1 (line with squares, denominated Pj1) and the Par37 peptide (line with triangles). On the x-axis the amounts of protein used, and on the y-axis the percentage of histamine released with respect to the percentage of total histamine present in the patient's mastocytes are reported.
The histamine release assay was carried out by using heparinised blood from Pj allergic subjects (n=5) and an allergen concentration scale ranging from 0.0001 and 1 μg/ml. Release protocol was carried out as previously described (Colombo, P., et al., Identification of an immunodominant IgE epitope of the Parietaria Judaica major allergen. J. Immunol, 1998. 160(6): p. 2780-5). The data reported in FIG. 9 show the percentage of release obtained after stimulation with Parj1 allergen.

HeLa cells = test: Cytotoxicity test with HeLa cells (MTS, CellTiter 96 AQueous One); format: cell-based, human; conditions: 0.5-5-50 μg/ml, 48 h; FIG. 5
Protocol: FIG. 5: Cytotoxicity test carried out with HeLa cells in culture. The assay describes the bioreduction of MTS (Owen's Reagent) produced by enzymes having dehydrogenase activity present in metabolically active cells.
The cytotoxity tests were carried out on HeLa cell lines growing in adhesion. Cell lines were maintained in RPMI 1640 culture medium containing 10% fetal calf serum and 0.1% antibiotics (penicillin, streptomycin and gentamycin); cultivated under humid 5% CO2 atmosphere at 37° C. To carry out the cytotoxicity test, the system CellTiter 96 AQueous One Solution Cell Proliferation Assay by Promega was used. In short, Hela cells were resuspended in a 100 μl volume of medium at a concentration of 10,000 cells/ml, then seeded on 96-well flat bottom plates and left to adhere in incubator at 37° C. for 3 h. Thereafter, Par37 peptide was added at increasing concentrations (0.5-5-50 μg/ml). The plate was incubated at 37° C. in 5% CO2 for further 48 h. Then 20 μl of CellTiter 96 AQueous One Solution reagent were added. Cells were thus incubated for 1 h at 37° C. in a CO2 incubator. The test was carried out in triplicate and compared to a row of blanks containing exclusively culture medium. After incubation, a spectrophotometer reading was carried out, measuring absorbance at 490 nm.

[2] = test system: LPS (Escherichia coli, serotype 026:B6); format: binding
[3] = test system: PBMC from Pj allergic patients and non-allergic subjects; test: PBMC proliferation (Cell Proliferation ELISA, BrdU); format: cell-based, human; conditions: 0.1, 1 and 10 μg/ml, 5 days; 3 Pj allergic patients and 3 non-allergic subjects; FIG. 7
Protocol: FIG. 7: Analysis of PBMC proliferation of 3 Pj allergic patients and 3 healthy subjects. Stimulation was conducted by adding to the culture medium rParj1 and Par37 synthetic peptide at a concentration of 0.1, 1 and 10 μg/ml. Numerical values on the y-axis indicate proliferation indexes with respect to the unstimulated sample. White histograms identify PBMC stimulated by Parj1, black histograms identify PBMC stimulated by Par37 peptide. Horizontal bars indicate significance values (values above the bar indicate a positive stimulation; values below the bar indicate absence of proliferation).
PBMC from Pj allergic patients (n=3) and non-allergic subjects (n=3) were purified by Ficoll gradient and resuspended in complete RPMI (10% AB serum). Cells were stimulated 5 days with 0.1, 1 and 10 μg/ml rParj1 and Par37. For the determination of stimulation indexes, cells were treated according to what described in the Cell Proliferation ELISA kit, BrdU (colorimetric) (Roche).

[4] = test system: PBMC of non-allergic subjects; test: ELISA of IFN-γ release from PBMC stimulated with the antigen itself; conditions: 1 and 10 μg/ml; healthy subjects n=4; FIG. 8
Protocol: Black bars indicate the values of the unstimulated sample (negative control), checkered bars the values of cells stimulated by rParj1.01, white bars the values obtained from cells stimulated by Par37 peptide.
(IFN-γ) cytokine production in supernatants after stimulation with the various antigens was evaluated by ELISA, using commercial kits and following the manufacturers' (GE healthcare, IFNg, Human, Biotrak) instructions.

Molecule | hemolytic effect on human erythrocytes (human erythrocytes) | histamine release (anaphylactic activity) [1] | toxic effect on HeLa cells (MTS bioreduction, absorbance 490 nm) (HeLa cells) | LPS-binding capability ([2]; FIG. 3, native isoforms of Parj1) | lowest dilution with positive reaction to the endotoxin in the LAL test (endpoint) ([2]; eluate of HisTrap column loaded with 100 μg protein, then 100 μg LPS, LAL sensitivity 0.12 EU) | cell proliferation (lymphoproliferative activity) of PBMC [3] | IFN-γ release from PBMC induced by the antigen itself [4]
LPVSLRHGPVTGPSDPAHKARLERPQIRVPPPAPEKA [Par37] | no hemolytic effect | no histamine release is observed | no toxic effect |  |  |  | 
B1 |  |  |  | has the LPS-binding capability | 1/256 | capable of inducing cell proliferation in all allergic patients | impressive secretion of cytokine

Source: US8535680B2, “Anti-LPS factor from Parietaria judaica and methods of use thereof” (Consiglio Nazionale Delle Ricerche, priority 2008, dated 2013)
